From patent US10533044B2, “Integrin Antagonists” (The General Hospital Corporation, priority 2014, dated 2020)
No end group written: not given here.

Legend:
[1] = system: model tumor growth and angiogenesis; conditions: in vivo; cited from earlier work
αVβ3 [2] = biological target: T1, αVβ3 (Homo sapiens, UniProt P05106+P06756); assay: AP5 epitope expression on K562-αVβ3 cells preincubated with knottin-Fc; type: cell-based; conditions: Ca2+ and Mg2+ 1 mM each
T1 construct: expressed in transfected cells
Method: Cells were washed, resuspended, fixed in 4% paraformaldehyde, and analyzed using FACSCalibur or BD-LSRII flow cytometers (BD Biosciences). Binding of soluble knottin dimers to αVβ3-K562 cells was expressed as mean fluorescence intensity (MFI), as determined using FlowJo software. […] Alexa647-labeled mAb AP5 Fab (10 μg/ml) was added, and cells incubated for an additional 30 min before washing. APC-labeled goat anti-mouse Fc-specific antibody was added to anti-LIBS-1- or anti-LIBS-6-bound M21 cells for an additional 30 min at 4° C. Cells were then washed, resuspended, fixed in 4% paraformaldehyde and analyzed by flow cytometry. AP5 epitope expression was measured and expressed as MFI.
Cells were washed, resuspended, fixed in 4% paraformaldehyde, and analyzed using FACSCalibur or BD-LSRII flow cytometers (BD Biosciences). Binding of soluble knottin dimers to αVβ3-K562 cells was expressed as mean fluorescence intensity (MFI), as determined using FlowJo software. […] APC-labeled goat anti-mouse Fe-specific antibody was added to anti-LIBS-1- or anti-LIBS-6-bound M21 cells for an additional 30 min at 4° C. Cells were then washed, resuspended, fixed in 4% paraformaldehyde and analyzed by flow cytometry. AP5 epitope expression was measured and expressed as MFI.

αVβ3 [3] = biological target: T1, αVβ3; assay: Binding of knottin-Fc fusion proteins to K562-αVβ3 cells (FACS); conditions: Fc fusion in culture supernatant; Ca2+ and Mg2+ 1 mM each
Text: The wild type and modified versions were transiently expressed in HEK293 cells grown in 3% FBS. Culture supernatant contained equivalent amounts of the respective fusion proteins (verified by ELISA) and of the correct size (using western blotting with anti-his tag antibody). Binding of each to K562 cells expressing recombinant αVβ3 (K562-αVβ3) was examined using FACS as described in the methods section of the above-referenced paper, except that the unlabeled bound knottin was detected by adding fluorescienated anti-human Fc mAb.
Wild type and P/W substituted forms of knottin 2.5 F were expressed as Fc fusion proteins in mammalian cells and their abilities to bind cellular αVβ3 and to express the LIBS mAb AP5 were compared. αVβ3-K562 (1×10^6) cells were suspended in 100 μl of culture supernatant containing equivalent amounts (based on ELISA) of WT knottin 2.5 F-Fc fusion protein, knottin 2.5 F (P/W)-Fc, WT knottin 2.5 D-Fc, or knottin 2.5 F (A/W)-Fc or medium alone and incubated for 30 min; 25° C., washed in 400 μl buffer and fluoresceinated anti-FC-specific antibody added for an additional 30 min at 4° C. Cells were washed, resuspended, fixed in 4% paraformaldehyde, and analyzed using FACSCalibur or BD-LSRII flow cytometers (BD Biosciences). Binding of soluble knottin dimers to αVβ3-K562 cells was expressed as mean fluorescence intensity (MFI), as determined using FlowJo software. […]

K562-αVβ3 cells = assay: Mn2+-induced spreading of K562-αVβ3 cells on immobilized FN forms; type: cell-based, human; conditions: 1 mM Mn2+
Method: The various FN-coated surfaces were washed with PBS, and blocked with bovine serum albumin (5% w/v in PBS; lh; 25° C.). K562-αVβ3 cells (5×10^4) were added (in TBS; 1 mM Mn^2+), in the absence or presence of LM609 mAb (10 μg/ml, added 15 min prior to plating). Cells were incubated (2 h; 37° C.), washed three times in warm TBS and fixed with 4% formaldehyde (in PBS; 25° C.; 10 min). Images were captured using an inverted phase microscope (Zeiss Axiovert 40CFL) fitted with a powershot G12 Cannon Camera. ImageJ 1.48a software (National Institutes of Health, USA) was used to quantify cell spreading of 300-400 random selected cells. Spread cells were clearly distinguishable from round, refringent non-spread cells. Representative phase contrast images were collected using Zeiss Axiovert 35 inverted microscope using a CCD camera and Spot software (Diagnostics Instruments). Adhesion of transiently transfected HEK293 expressing equivalent amounts of αVβ3(N339/S) or αV(N266/Q)β3(N339/S) was done by adding cells (3×10^4) in TBS containing Ca^2+/Mg^2+ and 0.1% BSA (w/v) to FN-coated surfaces (45 min; 25° C.). Non-adherent cells were removed by washing and adherent cells fixed (2% paraformaldehyde; 30 min; 25° C.), stained (0.1% Crystal Violet; 30 min; 25° C.), washed with water, air dried and then solubilized (1% SDS). Relative cell attachment was estimated by absorbance of the lysates at 540 nm measured using a SpectraMax M2E microplate reader (Molecular Devices, Sunnyvale, Calif.).

αVβ3(N339/S) = biological target: T2, αVβ3(N339/S) (Homo sapiens, UniProt P05106+P06756, N365S); assay: Binding of fluoresceinated FN10 to WT αVβ3 or αVβ3(N339/S) expressed on HEK293T cells
T2 construct: pcDNA3 plasmids encoding full-length WT αVβ3, αVβ3(Y122/A), αVβ3(N339/S); expressed in transfected cells; host or cells: HEK293T (transient)
Method: The human erythroleukemia cell line K562 stably expressing recombinant αVβ3 (K562-αVβ3) and the human melanoma cell line M21, which constitutively expresses αVβ3, have been previously described (Xiong, J. P. et al. The Journal of Cell Biology 186, 589-600 (2009); and Mitjans, F. et al. J Cell Sci 108 (Pt 8), 2825-2838 (1995)). Cells were maintained in Iscove's modified Dulbecco's medium (K562-αVβ3) or RPMI1640 (M21), supplemented with 10% fetal calf serum, 2 mM L-glutamine, penicillin and streptomycin, plus G418 (0.5-1.0 mg/ml) in cultured K562-αVβ3. HEK293T (ATCC) were transiently co-transfected with pcDNA3 plasmids encoding full-length WT αVβ3, αVβ3(Y122/A), αVβ3(N339/S), or αV(N266/Q)β3(N339/S) using Lipofectamine 2000 reagent (Invitrogen) according to the manufacturer's protocol.
In cellular and biochemical assays where calcium, magnesium or manganese ions were used, they were each at final concentrations of 1 mM. […] Binding of soluble FN10 to αVβ3^+ cells was expressed as mean fluorescence intensity (MR), as determined using the CellQuest software (BD). […] Mean and SD from independent experiments were calculated, and compared using Student's t test.

αVβ3 ectodomain = biological target: T3, αVβ3 ectodomain (Homo sapiens, UniProt P05106+P06756); assay: Hydrodynamic shift assay (molecular sieve chromatography, Stokes radius); conditions: in Mn2+ (6.3 nm without ligand)
T3 construct: αVβ3 ectodomain was incubated alone or with FN10; made in house; host or cells: insect cells
Method: αVβ3 ectodomain was incubated alone or with FN10 (at 2:1 FN10/integrin molar ratio) in 145 mM NaCl and 25 mM Tris-HCl, pH 7.4 (TBS) containing Ca^2+, Ca^2+/Mg^2+ or Mn^2+ (20° C.; 1.5 h). Aliquots were taken and chromatographed at room temperature at this time point on a precalibrated Superdex S-200 GL column equilibrated buffer with the same metal ion composition used during the incubation, and Stokes radii were derived as described previously (Xiong, J. P. et al. The Journal of Cell Biology 186, 589-600 (2009)). The elution profiles resolved by molecular sieve chromatography were monitored in-line by UV adsorption at 280 nm. Unliganded ±FN10-treated αVβ3 species were resolved as single discrete symmetrical peaks. Excess FN10 served as an internal standard. Identity of resolved peaks was formally confirmed by SDS-PAGE.

α5β1 = α5β1 (Homo sapiens, UniProt P05556+P08648); conditions: Moore et al, 2013; cited from earlier work
αVβ5 = αVβ5 (Homo sapiens, UniProt P06756+P18084); conditions: Moore et al, 2013; cited from earlier work
αVβ3 [4] = biological target: T1, αVβ3; assay: Binding of fluoresceinated fluid-phase FN10 to K562-αVβ3 cells (flow cytometry); conditions: 1 mM Ca2+/Mg2+; fold over background
Method: In cellular and biochemical assays where calcium, magnesium or manganese ions were used, they were each at final concentrations of 1 mM. Cells stably (K562) or transiently (I-fEK293T) expressing WT or mutant forms of αVβ3 were preincubated (30 min; 0° C.) in the dark with Alexa647-conjugated AP3 (10 μg/ml), washed in Hepes-buffered saline (20 mM Hepes, 150 mM NaCl, pH 7.4) containing BSA (0.1% w/v; washing buffer, WB), incubated in 10 mM EDTA in WB (5 min; 25° C.), then washed three times in WB. […] Binding of soluble FN10 to αVβ3^+ cells was expressed as mean fluorescence intensity (MR), as determined using the CellQuest software (BD). Binding of soluble FN10 to HEK293T was normalized by dividing its MFI by the MFI of Alexa647-conjugated AP3 to the same cells and multiplying by 100. Mean and SD from independent experiments were calculated, and compared using Student's t test.

αVβ3^N/S = αVβ3^N/S (Homo sapiens, UniProt P05106+P06756, N365S); assay: Binding of fluorescein-tagged hFN10-G to preactivated cellular αVβ3(N/S); design: pcDNA3 plasmids encoding full-length WT αVβ3, αVβ3(Y122/A), αVβ3(N339/S); expressed in transfected cells; host or cells: HEK293T (transient); conditions: N339 to S activation
Text: (§1) FIG. 9. […] (A) Superposed RGD-containing loops of hFN10 (gray in original), hFN10-G (pink in original) onto the RGD loop of frog γC (green in original). Sphere represents the metal ion at MIDAS.

αIIbβ3^N/S = biological target: T4, αIIbβ3^N/S (Homo sapiens, UniProt P05106+P08514, N365S); assay: Binding of fluorescein-tagged hFN10-G to preactivated cellular αIIbβ3(N/S); conditions: N339 to S activation
T4 construct: expressed in transfected cells
Text: as §1

T1 sequence (P06756 31-889 limits assumed): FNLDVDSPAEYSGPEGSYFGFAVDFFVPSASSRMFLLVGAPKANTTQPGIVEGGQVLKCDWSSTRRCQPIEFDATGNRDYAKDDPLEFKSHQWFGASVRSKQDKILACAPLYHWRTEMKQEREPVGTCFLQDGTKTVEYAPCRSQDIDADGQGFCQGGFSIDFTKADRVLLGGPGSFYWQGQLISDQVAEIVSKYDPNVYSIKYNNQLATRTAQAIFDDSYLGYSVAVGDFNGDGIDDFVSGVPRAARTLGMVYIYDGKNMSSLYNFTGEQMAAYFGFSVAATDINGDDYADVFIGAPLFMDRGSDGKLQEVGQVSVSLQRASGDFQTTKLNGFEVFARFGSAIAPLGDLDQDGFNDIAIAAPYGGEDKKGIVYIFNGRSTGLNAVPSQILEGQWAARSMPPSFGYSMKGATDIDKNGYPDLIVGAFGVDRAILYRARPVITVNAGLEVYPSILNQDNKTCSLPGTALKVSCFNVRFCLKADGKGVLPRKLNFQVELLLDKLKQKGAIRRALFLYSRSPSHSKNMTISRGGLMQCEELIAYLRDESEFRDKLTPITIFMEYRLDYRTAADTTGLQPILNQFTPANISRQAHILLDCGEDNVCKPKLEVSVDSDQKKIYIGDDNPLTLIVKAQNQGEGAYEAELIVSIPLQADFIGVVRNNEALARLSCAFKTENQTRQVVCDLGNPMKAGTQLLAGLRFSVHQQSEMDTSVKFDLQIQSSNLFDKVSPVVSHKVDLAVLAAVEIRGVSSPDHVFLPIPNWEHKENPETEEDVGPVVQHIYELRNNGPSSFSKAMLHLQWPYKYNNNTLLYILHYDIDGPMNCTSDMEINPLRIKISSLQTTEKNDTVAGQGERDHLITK
T1 sequence (P06756 891-1048 partner limits assumed): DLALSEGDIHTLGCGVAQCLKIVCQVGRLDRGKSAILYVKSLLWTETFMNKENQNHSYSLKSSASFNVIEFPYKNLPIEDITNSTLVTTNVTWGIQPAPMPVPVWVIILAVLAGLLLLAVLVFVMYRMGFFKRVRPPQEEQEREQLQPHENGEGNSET
T1 sequence (P05106 27-788): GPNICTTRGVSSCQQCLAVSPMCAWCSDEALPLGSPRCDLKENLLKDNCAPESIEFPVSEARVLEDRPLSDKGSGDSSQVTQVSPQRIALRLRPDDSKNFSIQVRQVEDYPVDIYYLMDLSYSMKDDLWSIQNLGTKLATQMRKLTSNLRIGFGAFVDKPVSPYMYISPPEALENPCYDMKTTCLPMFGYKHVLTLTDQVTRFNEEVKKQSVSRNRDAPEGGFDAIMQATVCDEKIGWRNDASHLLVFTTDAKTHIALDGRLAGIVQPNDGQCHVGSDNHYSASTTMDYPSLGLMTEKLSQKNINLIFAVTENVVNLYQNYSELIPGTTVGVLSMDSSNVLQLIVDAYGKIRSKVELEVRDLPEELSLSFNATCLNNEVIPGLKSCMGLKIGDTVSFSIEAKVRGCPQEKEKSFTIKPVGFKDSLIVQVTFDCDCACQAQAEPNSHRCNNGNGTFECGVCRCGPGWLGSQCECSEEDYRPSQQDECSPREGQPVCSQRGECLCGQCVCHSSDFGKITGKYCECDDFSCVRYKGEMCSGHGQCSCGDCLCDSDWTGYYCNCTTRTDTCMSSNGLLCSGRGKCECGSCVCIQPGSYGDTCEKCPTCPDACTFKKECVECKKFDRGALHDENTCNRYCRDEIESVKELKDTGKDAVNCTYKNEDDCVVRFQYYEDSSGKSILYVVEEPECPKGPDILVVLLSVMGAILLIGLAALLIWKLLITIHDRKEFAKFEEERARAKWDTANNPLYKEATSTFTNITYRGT
T3 sequence (P06756 31-987): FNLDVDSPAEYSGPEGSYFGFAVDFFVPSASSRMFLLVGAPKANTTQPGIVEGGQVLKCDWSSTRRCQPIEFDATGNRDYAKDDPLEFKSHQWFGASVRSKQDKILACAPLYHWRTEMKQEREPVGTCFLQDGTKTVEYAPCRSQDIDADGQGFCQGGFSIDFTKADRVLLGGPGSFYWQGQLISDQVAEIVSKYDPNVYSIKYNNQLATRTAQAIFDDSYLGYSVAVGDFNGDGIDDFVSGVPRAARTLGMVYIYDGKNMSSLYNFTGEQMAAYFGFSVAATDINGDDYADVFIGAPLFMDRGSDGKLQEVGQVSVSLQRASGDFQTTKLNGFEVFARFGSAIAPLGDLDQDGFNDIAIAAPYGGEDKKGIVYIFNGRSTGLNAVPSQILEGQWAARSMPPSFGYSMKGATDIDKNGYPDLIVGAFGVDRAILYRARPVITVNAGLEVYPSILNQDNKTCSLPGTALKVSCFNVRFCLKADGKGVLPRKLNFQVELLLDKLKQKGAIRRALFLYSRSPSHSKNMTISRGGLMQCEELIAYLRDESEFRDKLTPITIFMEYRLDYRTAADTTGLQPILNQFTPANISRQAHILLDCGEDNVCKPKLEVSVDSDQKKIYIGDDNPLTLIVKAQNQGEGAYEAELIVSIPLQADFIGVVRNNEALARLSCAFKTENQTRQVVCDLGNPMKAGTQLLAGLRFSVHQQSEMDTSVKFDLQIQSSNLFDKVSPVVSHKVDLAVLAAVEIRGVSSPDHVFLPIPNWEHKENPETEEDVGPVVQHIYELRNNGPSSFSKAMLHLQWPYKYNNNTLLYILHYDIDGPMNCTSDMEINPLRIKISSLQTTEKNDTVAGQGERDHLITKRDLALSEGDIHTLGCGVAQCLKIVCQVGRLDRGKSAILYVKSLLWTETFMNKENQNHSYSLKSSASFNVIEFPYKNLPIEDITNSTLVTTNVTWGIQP
T3 sequence (P05106 27-718): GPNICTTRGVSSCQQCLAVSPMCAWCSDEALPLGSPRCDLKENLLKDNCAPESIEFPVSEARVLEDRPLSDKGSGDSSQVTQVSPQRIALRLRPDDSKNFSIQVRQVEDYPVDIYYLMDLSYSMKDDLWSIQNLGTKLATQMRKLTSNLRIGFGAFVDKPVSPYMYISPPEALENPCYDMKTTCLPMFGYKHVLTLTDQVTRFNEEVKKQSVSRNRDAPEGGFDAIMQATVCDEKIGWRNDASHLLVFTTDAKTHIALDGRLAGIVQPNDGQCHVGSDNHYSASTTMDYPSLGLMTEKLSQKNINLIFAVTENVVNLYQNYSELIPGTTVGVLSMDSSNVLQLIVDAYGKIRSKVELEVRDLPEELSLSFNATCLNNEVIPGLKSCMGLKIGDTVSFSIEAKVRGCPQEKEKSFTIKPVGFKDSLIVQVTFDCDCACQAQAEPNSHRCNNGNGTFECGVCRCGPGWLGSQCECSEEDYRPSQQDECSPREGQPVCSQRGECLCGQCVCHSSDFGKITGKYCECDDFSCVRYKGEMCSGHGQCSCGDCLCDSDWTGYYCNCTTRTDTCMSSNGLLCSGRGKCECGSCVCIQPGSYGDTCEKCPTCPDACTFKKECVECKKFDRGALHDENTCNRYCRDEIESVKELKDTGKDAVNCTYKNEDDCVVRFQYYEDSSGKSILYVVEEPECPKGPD
T2 sequence (P06756 31-889 limits assumed): as the sequence (P06756 31-889 limits assumed) above
T2 sequence (P06756 891-1048 partner limits assumed): as the sequence (P06756 891-1048 partner limits assumed) above
T2 sequence (P05106 27-788 N365S): as the sequence (P05106 27-788) above, with N339S counted along it
Chain of αVβ5 (P06756 31-889 limits assumed): as the sequence (P06756 31-889 limits assumed) above
Chain of αVβ5 (P06756 891-1048 partner limits assumed): as the sequence (P06756 891-1048 partner limits assumed) above
Chain of αVβ5 (P18084 24-799): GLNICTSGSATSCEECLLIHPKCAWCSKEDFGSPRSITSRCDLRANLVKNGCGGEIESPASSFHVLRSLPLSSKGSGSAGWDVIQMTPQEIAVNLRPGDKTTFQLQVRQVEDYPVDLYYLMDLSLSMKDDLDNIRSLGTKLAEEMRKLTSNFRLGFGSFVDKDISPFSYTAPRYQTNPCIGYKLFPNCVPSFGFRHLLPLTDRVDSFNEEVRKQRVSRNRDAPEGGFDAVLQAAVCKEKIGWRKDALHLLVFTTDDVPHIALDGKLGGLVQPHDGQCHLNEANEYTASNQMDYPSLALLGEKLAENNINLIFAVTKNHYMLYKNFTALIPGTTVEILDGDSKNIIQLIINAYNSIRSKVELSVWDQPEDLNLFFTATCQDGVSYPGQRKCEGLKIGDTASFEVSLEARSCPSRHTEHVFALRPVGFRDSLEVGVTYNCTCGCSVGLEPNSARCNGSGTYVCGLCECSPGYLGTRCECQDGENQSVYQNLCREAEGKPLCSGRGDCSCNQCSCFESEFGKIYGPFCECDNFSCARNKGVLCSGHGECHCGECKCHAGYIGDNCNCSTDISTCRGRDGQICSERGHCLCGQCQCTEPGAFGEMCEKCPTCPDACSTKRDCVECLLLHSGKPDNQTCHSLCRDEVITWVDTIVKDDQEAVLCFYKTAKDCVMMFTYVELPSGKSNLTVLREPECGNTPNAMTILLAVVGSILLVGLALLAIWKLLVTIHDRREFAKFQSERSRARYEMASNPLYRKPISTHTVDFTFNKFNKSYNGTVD
Chain of αVβ3^N/S (P06756 31-889 limits assumed): as the sequence (P06756 31-889 limits assumed) above
Chain of αVβ3^N/S (P06756 891-1048 partner limits assumed): as the sequence (P06756 891-1048 partner limits assumed) above
Chain of αVβ3^N/S (P05106 27-788 N365S): as the sequence (P05106 27-788) above, with N339S counted along it

CC(C)[C@H]1C(=O)N[C@@H](CCCN=C(N)N)C(=O)NCC(=O)N[C@@H](CC(=O)O)C(=O)N[C@H](Cc2ccccc2)C(=O)N1C [cilengitide]
Effect on model tumor growth and angiogenesis [1]: paradoxically stimulated model tumor growth and angiogenesis

P/W knottin 2.5 F: knottin 2.5 F with Proline 10 replaced by Trp, expressed as Fc fusion protein (GCPRPRGDNWPLTCSQDSDCLAGCVCGPNGFCG; disulfide (positions not given here); also: cystine-knot disulfide bonds, pairing not given here, Fc fusion protein)
AP5 expression / integrin activation on K562-αVβ3 (αVβ3 [2]): suppressed AP5 expression | Binding to cellular αVβ3 (K562-αVβ3) (αVβ3 [3]): equivalent

full-length FN: full-length human plasma fibronectin from Sigma-Aldrich
Spreading of K562-αVβ3 cells on immobilized ligand (K562-αVβ3 cells): extensive spreading

hFN10: mutant high affinity form of the 10th type-III domain of fibronectin, loop PRGDWNEG, SEQ ID NO: 9
Spreading of K562-αVβ3 cells on immobilized ligand (K562-αVβ3 cells): little spreading | Binding to WT αVβ3 versus active αVβ3(N339/S) (αVβ3(N339/S)): similar | Stokes' radius (Rs) of αVβ3 complex (αVβ3 ectodomain): 6.3 nm

knottin 2.5 F: cysteine-knot peptide, chemically synthesized, published sequence (Kimura et al 2009) (GCPRPRGDNPPLTCSQDSDCLAGCVCGPNGFCG)
Binding to integrin α5β1 (α5β1): binds | Binding to integrin αVβ5 (αVβ5): binds

wtFN10: 10th type-III RGD-domain of wild-type human fibronectin, loop GRGDSPAS, SEQ ID NO: 20 [reference compound]
Binding of fluoresceinated FN10 to K562-αVβ3 (αVβ3 [4]): low background | Spreading of K562-αVβ3 cells on immobilized ligand (K562-αVβ3 cells): extensive spreading | Stokes' radius (Rs) of αVβ3 complex (αVβ3 ectodomain): 6.6 nm

B1: hFN10-G: hFN10 with a glycine inserted after proline 1492, SEQ ID NO: 29 (protein)
chain: SDVPRDLEVVAATPTSLLISWDAPAVTVRYYRITYGETGGNSPVQEFTVPGSKSTATISGLKPGVDYTITVYAVTPGRGDWNEGSKPISINY
Binding to preactivated cellular αVβ3^N/S (αVβ3^N/S): did not bind | Binding to preactivated cellular αIIbβ3^N/S (αIIbβ3^N/S): some binding
